According to the supplement of paper PMC11502859:

tested on: HEK293T; assay: median enrichment of reporter reads in eGFP-reduced (low/intermediate) vs eGFP-high sorted cells (eGFP-extension fusion abundance) (ratio); higher = stronger loss of eGFP-fusion protein abundance (more destabilising extension)
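Also: lentiviral eGFP-IRES-mCherry reporter pool sorted by FACS 96 h post-transduction, gated on mCherry-high cells, Illumina read counts normalized per million, median across four biological replicates.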

Substance | median enrichment
KSYLSLSNGMKLDNFKKLSRTKGERNTCSFSCN [KLHL4] | 5.48
KTAPPTSVQAGRSP [NCAPD3] | 7.59
KTCIHFLQTI [BACH1] | 2.97
KTIQKRNQFFPQSIQCLEY [HEATR3] | 5.13
KTKAKYIDFTVILKYNKNC [IL26] | 5.5
KTNKMRSSLWSFNSLMQIKTQTSLQALAYYSCIKNFGWGDLGA [MTRNR2L7] | 7.22
KTQMRASLRLPETARPKSQVQSFPTPLKFIVSSREKQIPIHPTNRCIVWVLEVPSKLLLVRLG [PPEF1] | 14.2
KTTFPKENIRGFHC [CPVL] | 0.477
KVCRSQ [KRTAP11-1] | 3.09
KVKP [TRPC5] | 0.338
KVPMSQPGLWLPSIPSPEMAPWDEEGRVGCWCRIKIWQDRLPQGHRPLPPTRTPPTQLPLRVL [ITGA7] | 17.1
LAAGVAMMGWSSLGQGVLGPTPTPPPRHHFPSRFLRLDLGSPLPVMHSCPGPTSPSLTSLELWPPRKGPIQPRLFTEVVLFMK [SCN1B] | 4.89
LAAHPASSHVVWEQRDSHLRGGV [RASAL3] | 2.07
LAASRATSPHVGCPSWGREGQSVGWLGRGLALVGQPTPQPERA [RBM10] | 8.96
LAAWDRSTNYTGSGIRVSKMSYECRSEGHMLTLESVER [NLRP7] | 13.6
LACPFCPVGPQAHSGVTEA [TLX1] | 6.73
LADI [MED30] | 0.335
LADP [AKAP4] | 0.662
LAEDPADPYLEEEEKQERESHSQPAIGSNWTTCGMDLETSTSPNTSPLPRAGPVHALP [CYFIP2] | 1.33
LAEEVGMGALCLLC [FGA] | 11.4
LAFRLALAPGTRSPRAPGPLPAPAAPSPSPGCVSLPMTLSWGPPARPGTFLPNPQTHDSLPHRLPQRPPTHFILSGHPSDLDP [SCRT2] | 3.18
LAGAAGVPPAPGPWVSAARPPPVPAVLSVHWGPSVVPFVENLLHKALLNCLELGTSIPMETSPVWGTWRICQRLSDMGPWQFY [NYNRIN] | 6.95

Substance | median enrichment
LAGVFVPVSLILSRH [KCNS3] | 5.72
LAGWDHPPAPQLHALP [INSYN2B] | 0.774
LAHEPTRMSSDFQPHPSGSCAKGGGRR [TREM1] | 0.974
LAHPKYACHLRPQAGHTGQPACRQDLPASSSQYSLQRLKCEAPAPPSALQPTGPGRTCPLSVSPSRVPRWRPLSTG [PAK6] | 3.88
LALLSRWGLPETVCFVSPTTITATWLLPCGRRVTG [SF3B3] | 34.6
LALYLGSGQELHLGTNSC [ABCF2] | 6.15
LANAS [NXF1] | 0.411
LAPASGLAIPLLSADYGVSTFGHNTYSPFTLYHSATNHRTDHLRLFLLALCVQDSLIHFCW [GIGYF2] | 35.9
LAPLGLEFATGRILQRQVVPGPLLHPFSRRPCQRLHPVVNLVWRQRLRGWTSIVGQGLTLQGFCSWLWTPENPLLPSPNTRFL [FAM110A] | 6.38
LAPRAEKMLGTHPAPPSTNTSGWGRGRTL [VPS26B] | 1.3
LAPRPRETGWRHGAGPSFHGACGCRAGGAAESGPGPLPAGGDFFFSYF [GNA11] | 11.8
LAQLPLSYSSATPQLPLSPAAARATARPGLSSARLTSARPAGLLKAVGRTPA [MED16] | 5.35
LARAPRGHLGRPREAEGHGVGGSRRVPASMVPALDLQLP | 5.4
LARAPSGGITDLMTTLALLPCRVQVLSPHFHLPAPRGPFPFMGLPPSDAQEGSSAMTGLLPLTSREHPLDLGRWWSQGWAAYF [PCDH1] | 6.44
LASCGPGNEMELTA [TSSK1B] | 1.49
LASDLPNDLLLAQLDARQARLSLC [BNC2] | 4.33
LATATALPVRQAPKGGGGMAQEEGCEEEEGEMAVASGSALQL [FAM228A] | 0.27
LATWRNCLCTGCGPTLSS [MED12] | 15.1
LAVGAHHLPDSQRENNLAKPIFDTGTFSSQFSLFSQKMI [C1orf105] | 12.7
LAVWAPRGLALLPGLGEPRAALPWQRQDVGERSLVQ [GRK6] | 3.3
LAWDTEGPVRSIYCNSNCNLVLRRRESMFGQQNFSLSLKFTASISFPY [NUPR2] | 7.51
LAWN [CLRN1] | 0.652

Substance | median enrichment
LAYLLVFVLKCDLRFNV [TMEM70] | 9.39
LCDCSKLWCKIPPVSSHLPDFYLGLARTSSPSYQPSLPPSSHWTPALALPLG [LY6G5C] | 3.74
LCFAEIFCSLRISETYL [SIM1] | 7.43
LCLI [UBP1] | 3.44
LCT [DUSP22] | 1.23
LDAIWIWGLGVCVGGGIKWLWAGLSFPTAGCHIYTISLVRFLYKNLLLT [LSMEM2] | 15.5
LDALAMAQEKPARKNQTDFHTKEEASIFFFLFFIGVVTKPFRLLLFKI [QRICH1] | 10.6
LDFMHSSERVTVTTVLSPISHKLLFVSKRMLLLLHCFPFAGTCWCLLLNWPALLAVWHCSLGRLLCSLYLHYRLVNLPTSSL [DCUN1D4] | 4.52
LDLVQHGNDSYRLIQQLTLRQVVLFQRPLFLPKPCYELNQMCQVFSGVLSNILFSCMGTSPLQMTMLMDLFIYLFKSLFS [IFNA8] | 6.11
LDPQVPLSKAENVHIPHWHFPKDKNCPRHILSV [VSX1] | 10
LDRKEYERAIHHQTAHTGEK [ZNF573] | 0.396
LDRTCLRGRRTLAWAQESEAAFLLRGPSGESGPRYHARTLRGPVSCRRVSTFPPNPGLTALRSARRARAETRVGCGELKEPIK [UQCC3] | 3.74
LDRTWEPGGWEGQG [SLC35G6] | 0.429
LDVQDL [ZMPSTE24] | 0.209
LECRSAGRREE [CNPY1] | 12.4
LECSPFPCPGWQGRGRVKGMCCNTEDRKKKPLDTARDGG [ORMDL3] | 48.4
LEHWDAHRPFPSAARRACCGIYCGEHCIGMSGKSLYNLLQPSHLYNSLILFSFHNKMVYKNRSVCDVIGSNHPVLSSHSSW [COX10] | 1.73
LEIEKKKRISTQVFFFRNEDKI [ZNF24] | 2.65
LEIPGFSDGPI [SLC39A2] | 0.676
LEIWRIF [RNF148] | 9.09
LEKAIWDLITLNRHANTVCVRALCIQ [PCDH9] | 9.37
LEKPQVLLRLLSLPCQVSPVLTIQLGSTPFALLPCHTVLCLLFQVGMIMPSPANILQGPPNLIAGHSQPSESESRFLLSLPSS [PGLYRP4] | 7.65

Substance | median enrichment
LEKPSSFVETVALQPWRRTCWYLKNGTFATQD [DOCK8] | 6.15
LELLCFDS [MAP4K3] | 2.88
LELLPCPSFPPCTT [FEZF2] | 1.27
LEMKKDEVLTQ [DNAJC5G] | 0.255
LEPAAPASHLCLERTSAACQF [ECHS1] | 0.709
LEPWGWGRGCQLHSGTLGRWASERLLTGSGASRCQAASGPLGCPGQACEEGLRWGRQGAPGSRDHR [RPUSD1] | 5.25
LEQ [UNC93A] | 0.561
LETIMKKRVHISISKS [CTLA4] | 37.7
LEVVFGVQLLPCTFSLLLSSSTPNRENLGVSGSIWALIYSPSFLSML [ZNF774] | 9.71
LFCCCIYTSKGPDLLLLKLFFKTWNYKEIRSSITFDTNFYRN [TTC13] | 5.88
LFD [RBM26] | 1.04
LFDDRDLH [VAMP4] | 0.625
LFE [OR12D2] | 0.755
LFILEINLTNVMNVEKLLRGSWPLVNTREFILERNPTFVKNVAKPLSAPQPLQATREFIWKRDLTNVKNAAKPVFLRPD [ZNF727] | 15.7
LFIRSHGPITITLFSAFLLSSFLLSSPLLSSPLLPSPLCFFFFFFSFLWRSFALVAQAAVQWLNLGSLQPLPPRFK [GFRAL] | 7.15
LFLNALPHIFRKSRELLP [OR5AU1] | 9.77
LFQPGPKPTGVCGRARTQEV [DNMT3B] | 3.86
LFRCYSSLLKDDENAECLFKCF [GABRA4] | 13.1
LFSFQILGTETI [FBXO4] | 14.6
LFSSQLF [ADAM17] | 5.62
LFSTEIQNISLTALRCVC [NIPSNAP3B] | 6.41
LFVKLCLIM [GPR112] | 13.7

Substance | median enrichment
LGALPGTGSLTSQD [KIF19] | 0.309
LGEMSLSFLLPF [C10orf82] | 3.93
LGFRSAT [KIF15] | 1.28
LGGRCRKHLEQPQSHGAEGAGAAPVIGRGIPSVCSASCLLNKGLFLTHK [CUL9] | 14.9
LGGVWGHPS [ZG16B] | 2.14
LGHANNQSCSNFKPVTAHNRPGSELCEGP [CDON] | 0.661
LGHRQESVWAGLFNMVFAVLPPWGPWSDNIVSLVRLSRCLIRTANGASPTPPRVRPPFHQRVSSQRPPASCPAAQEEKEGLNS [PDGFB] | 4.11
LGKLPCRA [ZNF75D] | 0.566
LGLGRAHSAG [ATPAF2] | 10
LGLLALTLQPTLAVWPSPGSFPAPLPLFPVLLNSPSWRVQALGMGGTRPHSFHRALRPDTADQPHSAQEAASGVGAQRGTAAS [BAP1] | 8.12
LGLLHLPPSYLVPCRAPGLFGGTLGCTSGLPAPAAWAPPS [REEP4] | 5.64
LGLLPLGPLTLSGWWTTKYNPVYNLKIYFTFVLLYLFIKG [SMAD4] | 5.85
LGLRVHTGWQEASKGS [SERPINH1] | 4.89
LGNCWLAWHHHTATASHLLCQGGTSSAGACPVLCGRCCVLLNTAGPAITPWAWRSLGVSRCGGGQPGWPHSITGTACLGTRFP [PIGQ] | 5.81
LGP [COLQ] | 0.326
LGPVAGRPAPAPPPPTGVPAHSCGKGGEGRRARPEQGAGGRAQYLTRAAVLINVPMAGPRSEPASSATVTFSLRDGGGGSLSR [DUSP9] | 2.08
LGQAAPVLGEGG [DEPDC5] | 1.71
LGRIMASFQNSFS [OR2AG1] | 7.84
LGRLCPLPASLLCFPSPVSSLPSRPRHLPSVPWLSRTFYPTVRPQRGQDKPCPDAFDRQLCVLVDRCRNKEEMESAPEKLQIQ [H6PD] | 6.07
LGRTSALSDRTLRAMLPCHP [MRGPRX3] | 7.42
LGSVPGWPVPITSYAHLPPPVFPPLDWWPLPWGRSPHVPAPGDRQRRQQAAFVAQQGALPSLLPSCFS [CST3] | 4.44
LGSVQGLSH [CST5] | 0.51
